Target: bovine trypsin (bovine, UniProt P00760 24-246)
Assay: cell-based or functional assay

bovine trypsin, sequence (P00760 24-246): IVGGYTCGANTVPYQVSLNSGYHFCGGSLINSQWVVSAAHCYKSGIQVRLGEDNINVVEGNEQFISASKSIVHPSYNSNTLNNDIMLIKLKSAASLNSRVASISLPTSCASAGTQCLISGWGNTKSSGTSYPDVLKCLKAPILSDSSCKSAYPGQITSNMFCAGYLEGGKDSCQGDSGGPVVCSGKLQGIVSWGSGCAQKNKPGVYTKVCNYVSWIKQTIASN

Trypsin inhibition activity: 13700 TIU/g
B1: native chicken ovomucoid (nOVD) (other)
chain: AEVDCSRFPNATDKEGKDVLVCNKDLRPICGTDGVTYTNDCLLCAYSIEFGTNISKEHDGECKETVPMNCSSYANTTSEDGKVMVLCNRAFNPVCGTDGVTYDNECLLCAHKVEQGASVDKRHDGGCRKELAAVSVDCSEYPKPDCTAEDRPLCGSDNKTYGNKCNFCNAVVESNGTLTLSHFGKC
modifications: complex branched N-linked glycosylation (that includes mannose), as in chicken egg white
